This is an account of results in patent US20040146511A1.

Experiment [1] concerns the target human Factor IX (human) (UniProt P00740). Nature of the experiment: cell-based or functional assay.
The target of experiment [2] is Recombinant human Factor IX (rhFIX, Genetics Institute) (human) (UniProt P00740). Nature of the experiment: titration microcalorimetry; 106 uM FIX injected into 2 uM mAb.
Recombinant human Factor IX (rhFIX, Genetics Institute) (human), sequence (P00740 47-461 limits assumed): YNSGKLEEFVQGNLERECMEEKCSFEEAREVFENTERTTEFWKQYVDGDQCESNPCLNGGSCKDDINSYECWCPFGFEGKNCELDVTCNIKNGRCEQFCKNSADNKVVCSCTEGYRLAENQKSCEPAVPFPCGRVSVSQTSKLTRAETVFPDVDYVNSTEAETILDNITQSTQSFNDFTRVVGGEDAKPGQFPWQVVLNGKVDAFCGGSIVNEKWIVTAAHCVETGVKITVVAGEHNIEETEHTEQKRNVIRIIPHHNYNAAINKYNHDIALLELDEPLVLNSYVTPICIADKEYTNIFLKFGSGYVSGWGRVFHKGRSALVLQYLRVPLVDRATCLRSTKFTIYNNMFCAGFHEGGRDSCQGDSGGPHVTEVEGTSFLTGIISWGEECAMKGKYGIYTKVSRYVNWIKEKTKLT

human Factor IX (human), sequence (P00740 47-461 limits assumed): as above

B1: murine anti-Factor IX monoclonal antibody BC2 (antibody, from a related filing, mouse IgG2a, V domains shown)
VH: QIQLVQSGPELKKPGETVKISCKASGYTFTNYGMNWVKQAPGKGLKWMGWINTRNGKSTYVDDFKGRFAFSLESSASTANLQIDNLKDEDTATYFCTREGNMDGYFPFTYWGQGTLVTVSA
VL: QIVLSQSPAILSASPGEKVTMTCRASSSVNYMHWYQQKPGSSPKPWIYATSNLASGVPARFSGSGSGTSYSLTISRVEAEDAATYYCQQWSINPRTFGGGTKLEIKR
Take B1: in experiment [1], the aPTT at saturating concentrations was found to be 90 s and the aPTTmax/aPTTnormal x 100 % turned out to be 350%.

B2: humanized anti-Factor IX monoclonal antibody SB 249417 (antibody, V domains shown)
VH: QVQLVQSGSELKKPGASVKVSCKASGYTFTNYGMNWVRQAPGQGLKWMGWINTRNGKSTYVDDFKGRFVFSLDSSVSTAYLQISSLKADDTAVYYCTREGNMDGYFPFTYWGQGTLVTVSS
VL: QIVLTQSPSSLSASVGDRVTITCRASSSVNYMHWYQQKPGKAPKPWIYATSNLASGVPSRFSGSGSGTDYTFTISSLQPEDIATYYCQQWSINPRTFGQGTKVEIKR
Consider B2, for which the molar binding ratio (FIX per mAb) in experiment [2] worked out at 2 FIX per mAb.
